Numbering of substitutions follows the chain as printed. Names may count otherwise.
B1: sibrotuzumab (humanized reference antibody) (antibody, human IgG1, kappa, V domains shown)
VH: QVQLVQSGAEVKKPGASVKVSCKTSRYTFTEYTIHWVRQAPGQRLEWIGGINPNNGIPNYNQKFKGRVTITVDTSASTAYMELSSLRSEDTAVYYCARRRIAYGYDEGHAMDYWGQGTLVTVSS
VL: DIVMTQSPDSLAVSLGERATINCKSSQSLLYSRNQKNYLAWYQQKPGQPPKLLIFWASTRESGVPDRFSGSGFGTDFTLTISSLQAEDVAVYYCQQYFSYPLTFGQGTKVEIKR
B2: humanized anti-FAP antibody huF19-LG (antibody, human IgG1, kappa, V domains shown)
VH: B1 VH with T24A, R26G, P41T, R44G, V68A, I70M, D73G, A76I, Y95F
VL: DIQMTQSPSSLSASVGDRVTITCKSSQSLLYSRNQKNYLAWFQQKPGKAPKLLIFWASTRESGVPSRFTGSGFGTDFTLTISSLQPEDFATYYCQQYFSYPLTFGQGTKLEIKR
notes: Humanized from murine F19
B3: mutant humanized FAP antibody huF19-LG-NGR (antibody, human IgG1, kappa, V domains shown)
VH: B1 VH with T24A, R26G, P41T, R44G, G56R, V68A, I70M, D73G, A76I, Y95F
VL: B2 VL
notes: huF19-LG with G56R (Kabat) in HCDR2; also called optimized FAP antibody; mutant antibody

Key:
[1] = target: T1, cynomolgus FAP protein expressed on 293T cells (293T-cynomolgus FAP) (cynomolgus monkey, UniProt Q12884 1-760 (human entry)); test: flow cytometry on 293T-cynomolgus FAP cells, PE goat anti-human IgG Fc secondary antibody
T1 sequence: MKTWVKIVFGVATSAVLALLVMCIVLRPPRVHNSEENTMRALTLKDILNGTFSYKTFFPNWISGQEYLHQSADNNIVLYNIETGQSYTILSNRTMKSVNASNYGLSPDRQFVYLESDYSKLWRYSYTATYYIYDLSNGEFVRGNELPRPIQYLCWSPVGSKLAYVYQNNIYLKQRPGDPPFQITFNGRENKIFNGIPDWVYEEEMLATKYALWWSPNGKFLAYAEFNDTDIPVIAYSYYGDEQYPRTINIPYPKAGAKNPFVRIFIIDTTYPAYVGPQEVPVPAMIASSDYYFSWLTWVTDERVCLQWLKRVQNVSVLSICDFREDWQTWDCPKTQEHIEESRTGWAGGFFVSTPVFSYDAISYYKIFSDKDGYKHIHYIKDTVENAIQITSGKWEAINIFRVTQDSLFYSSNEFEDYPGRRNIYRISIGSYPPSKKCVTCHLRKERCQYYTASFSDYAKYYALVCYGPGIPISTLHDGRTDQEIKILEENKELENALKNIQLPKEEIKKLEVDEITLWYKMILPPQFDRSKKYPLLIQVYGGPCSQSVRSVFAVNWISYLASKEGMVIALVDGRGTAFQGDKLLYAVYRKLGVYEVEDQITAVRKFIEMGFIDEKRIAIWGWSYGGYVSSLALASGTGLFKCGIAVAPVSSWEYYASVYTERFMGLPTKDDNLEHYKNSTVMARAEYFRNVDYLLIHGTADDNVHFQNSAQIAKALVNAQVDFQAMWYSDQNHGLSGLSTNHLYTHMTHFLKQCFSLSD
Description: (§1) The cells were washed twice with PBS, and then fluorescent secondary antibody R-PE-conjugated AffiniPure Goat Anti-Human IgG, Fcγ Fragment Specific (Jackson Immuno Research, Cat #109-116-098) was added. The cells were incubated at 4° C. for 30 min. The cells were washed twice with PBS and then resuspended, and finally, fluorescence signals were detected using the […] (BD Bioscience) flow cytometer.

[2] = target: T2, human DPP4 protein expressed on 293T cells (293T-DPP4) (human, UniProt P27487 1-766); test: flow cytometry on 293T-DPP4 cells, PE goat anti-human IgG Fc secondary antibody
T2 construct: also called CD26
Description: as §1, with “cytometer. […] The antibodies were diluted at 1:100 with PBS, and the cell pellet was resuspended and incubated at 4° C. for 30 min. The cells were washed twice with PBS and then resuspended in 100 μL of PBS, and finally, fluorescence signals were detected using the BD Accuri C5 (BD Bioscience) flow cytometer.” for “cytometer.”

[3] = target: T3, recombinant human FAP protein (Sino Biological, Cat #10464-H07H) (human, UniProt Q12884 26-760); test: ELISA, human FAP protein coated on the plate, detection with HRP goat anti-human IgG F(ab')2; unit from the axis 'Antibody Conc[nM]' and paragraph 217
T3 construct: Bought protein
T3 sequence: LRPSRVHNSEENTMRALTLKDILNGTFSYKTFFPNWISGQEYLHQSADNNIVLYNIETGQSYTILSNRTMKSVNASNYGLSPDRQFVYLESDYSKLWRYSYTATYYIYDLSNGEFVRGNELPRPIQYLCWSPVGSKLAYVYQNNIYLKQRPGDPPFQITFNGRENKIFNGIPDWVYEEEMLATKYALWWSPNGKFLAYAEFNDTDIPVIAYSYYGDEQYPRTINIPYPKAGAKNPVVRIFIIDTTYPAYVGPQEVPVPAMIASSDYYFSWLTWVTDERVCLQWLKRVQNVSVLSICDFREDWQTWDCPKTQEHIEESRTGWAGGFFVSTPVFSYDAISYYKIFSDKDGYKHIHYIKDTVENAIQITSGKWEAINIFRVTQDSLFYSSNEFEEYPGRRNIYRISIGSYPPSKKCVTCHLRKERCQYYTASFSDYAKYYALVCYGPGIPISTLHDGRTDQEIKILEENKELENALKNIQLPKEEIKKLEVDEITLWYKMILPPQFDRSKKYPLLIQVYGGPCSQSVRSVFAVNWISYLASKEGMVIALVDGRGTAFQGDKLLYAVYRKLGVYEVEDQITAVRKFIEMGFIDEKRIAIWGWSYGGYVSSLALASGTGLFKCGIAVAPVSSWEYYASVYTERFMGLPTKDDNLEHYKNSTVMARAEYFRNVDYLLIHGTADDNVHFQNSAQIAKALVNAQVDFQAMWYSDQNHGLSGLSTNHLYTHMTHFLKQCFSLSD
Description: Human FAP protein (Sino Biological, Cat #10464-H07H) was immobilized on a 96-well plate by incubation overnight in a PBS buffer at 4° C. The plate was then blocked by incubation with a PBS containing 1% of BSA for 1 h at 37° C. After blocking, the plate was washed thrice with PBST (PBS containing 0.05% of Tween 20). […] After binding, the plate was washed thrice with PBST, incubated at 37° C. for 1 h with peroxidase-labeled goat anti-human IgG, F(ab′)₂ fragment specific (Jackson Immuno Research, Cat #109-035-097) diluted at 1/15,000 in the binding buffer, washed again, subjected to a chromogenic reaction with TMB, and quenched with 1 M H₂SO₄.

[4] = target: T4, human FAP protein expressed on 293T cells (293T-human FAP) (human, UniProt Q12884 1-760); test: flow cytometry on 293T-human FAP cells, PE goat anti-human IgG Fc secondary antibody
T4 sequence: T1 sequence with P29S, F261V, D417E
Description: as §1

[5] = target: T4, human FAP protein expressed on 293T …; test: flow cytometry on 293T-human FAP cells (panel title on the sheet), PE goat anti-human IgG Fc secondary antibody
Description: as §1

[6] = target: T1, cynomolgus FAP protein expressed on …; test: flow cytometry on 293T-cynomolgus FAP cells (panel title on the sheet), PE goat anti-human IgG Fc secondary antibody
Description: as §1

T2 sequence (P27487 whole entry): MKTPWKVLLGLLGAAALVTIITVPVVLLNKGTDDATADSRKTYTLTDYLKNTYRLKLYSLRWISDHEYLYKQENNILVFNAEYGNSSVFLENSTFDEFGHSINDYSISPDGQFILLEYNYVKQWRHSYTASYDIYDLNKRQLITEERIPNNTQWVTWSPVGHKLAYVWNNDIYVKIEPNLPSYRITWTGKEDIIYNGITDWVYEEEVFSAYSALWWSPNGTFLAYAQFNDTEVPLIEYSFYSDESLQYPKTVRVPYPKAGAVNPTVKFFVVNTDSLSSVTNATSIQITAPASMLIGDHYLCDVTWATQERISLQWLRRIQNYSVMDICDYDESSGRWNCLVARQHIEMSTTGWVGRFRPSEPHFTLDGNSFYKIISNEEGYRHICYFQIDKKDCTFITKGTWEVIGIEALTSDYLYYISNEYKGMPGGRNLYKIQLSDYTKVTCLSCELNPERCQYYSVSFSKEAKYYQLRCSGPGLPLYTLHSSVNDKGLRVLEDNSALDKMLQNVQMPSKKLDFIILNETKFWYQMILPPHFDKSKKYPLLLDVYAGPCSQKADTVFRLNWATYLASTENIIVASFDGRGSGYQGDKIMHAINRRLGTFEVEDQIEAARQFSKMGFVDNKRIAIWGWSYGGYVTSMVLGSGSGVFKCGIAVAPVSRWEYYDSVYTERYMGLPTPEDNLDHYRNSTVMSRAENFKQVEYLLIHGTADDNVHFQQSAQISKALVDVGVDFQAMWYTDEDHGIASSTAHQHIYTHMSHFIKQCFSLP

Binder | EC50 (read off the curve) [1] [nM] | binding result [2] | EC50 [3] [nM] | EC50 (read off the curve) [4] [nM] | EC50 (read off the curve) [5] [nM] | EC50 (read off the curve) [6] [nM]
B1 | ~1 | no binding (tested: 10 µg/mL) | 0.0863 | ~2 |  | 
B2 | 1 to 2 | no binding (tested: 10 µg/mL) | 0.0926 | ~2 | ~3 | ~4
B3 |  |  |  |  | ~2 | ~3

Reference: patent publication US20260265409A1 (NANJING LEADS BIOLABS, published 2026)
